Biological target: T1, 人BCMA-His抗原 (ACRO, Cat#BCA-H522y) (human, UniProt Q02223 1-54)
T1 construct: Bought reagent; Coated on the ELISA plate at 2 ug/ml; also called 人BCMA蛋白; 人BCMA抗原; not shown: His tag
T1 sequence (looked up): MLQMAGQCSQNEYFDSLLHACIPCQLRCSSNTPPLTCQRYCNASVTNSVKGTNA
Experiment: indirect ELISA, human BCMA-His coated at 2 ug/ml, detection with HRP goat anti-human Fc gamma

B1: BCMA-VHH-1F7纳米抗体 (抗人BCMA纳米抗体, 含有Fc tag) (Fc fusion)
chain: EVQLVESGGGLVQAGGSLRLSCAASGGTFNNDNVGWFRQAPGKEREFVAVISWRGDGTDYADSVKGRFTISRDYAKKMVYLQMNSLQPKDTAVYYCAVGDGSRWHGAYAYWGQGTRVTVSS
notes: Expressed in Expi293F cells with an Fc tag and purified on Protein A or G; detected with anti-human Fc gamma, about 35 kDa on SDS-PAGE; also called 抗BCMA纳米抗体; not shown: Fc tag
binding result: binds

Reference: patent CN112538115A (BIOSION BIO TECH NANJING CO LTD, dated 2021)
